From PMC10904049
pKd: −log10 of the molar value. One block for each substance: values may come before it.

How the values were obtained:
[1] = target: CaVβ4 (UniProt D4A055); assay: ITC; conditions: cited from earlier work
[2] = target: Cerulean-tagged CaVβ2B subunit (Cerulean-WT β2B); assay: flow cytometric FRET assay; conditions: HEK293 cells, read off a plot
[3] = FSK (10 µM) + Cal (100 nM), parent: est. 100
[4] = no FSK, no Cal, parent: est. 7.8

Substance: Rem2 (from UniProt Q9WTY2)
pKd [1]: 3.81

Substance: Venus-Rad-CAAX (WT Rad with a C-terminal CAAX motif) (from UniProt O88667) F280A; F294A
Kd ([2]; + FSK + Cal): 21 ×10^3
Kd ([2]; no FSK + Cal): 13 ×10^3

Substance: Venus-Rad-CAAX (WT Rad with a C-terminal CAAX motif) (from UniProt O88667) S256D; S272D; S289D; S298D; S300D; S305D
Kd ([2]; no FSK/Cal, parent: est. 9.3): 12 ×10^3

Substance: Venus-Rad-CAAX (WT Rad with a C-terminal CAAX motif) (from UniProt O88667) S272D; S289D; S298D; S300D
Kd ([2]; no FSK/Cal, parent: est. 9.3): 11 ×10^3

Substance: Venus-Rad-CAAX (WT Rad with a C-terminal CAAX motif) (from UniProt O88667) S272D; S300D
Kd ([2]; no FSK/Cal, parent: est. 9.3): 12 ×10^3

Substance: Venus-tagged WT Rad (from UniProt O88667) S25A; S38A
Kd [2, 3]: 44 ×10^3
Kd [2, 4]: 7.5 ×10^3

Substance: Venus-tagged WT Rad (from UniProt O88667) S25D; T26D; S38D; M39D
Kd ([2]; no FSK/Cal, parent: est. 7.8): 5.7 ×10^3

Substance: Venus-tagged WT Rad (from UniProt O88667) S256D; S272D; S289D; S298D; S300D; S305D
Kd ([2]; no FSK/Cal, parent: est. 7.8): 83 ×10^3

Substance: Venus-tagged WT Rad (from UniProt O88667) S272D; S300D
Kd ([2]; no FSK/Cal, parent: est. 7.8): 18 ×10^3

The next lines start with the values.

Kd [2]: 140 ×10^3
Substance: Venus-Rad-CAAX (WT Rad with a C-terminal CAAX motif) (from UniProt O88667) R208A; L235A

Kd ([2]; + FSK + Cal, parent: est. 100): 190 ×10^3
Kd ([2]; no FSK + Cal, parent: est. 8): 41 ×10^3
Substance: Venus-tagged WT Rad (from UniProt O88667) F280A; F294A

Kd ([2]; parent: est. 8): 140 ×10^3
Substance: Venus-tagged WT Rad (from UniProt O88667) R208A; L235A

Kd ([2]; Cal (100 nM), no FSK): 14 ×10^3
Kd [2, 3]: 13 ×10^3
Kd ([2]; FSK (10 µM), no Cal): 11 ×10^3
Kd [2, 4]: 11 ×10^3
Substance: Venus-tagged WT Rad (from UniProt O88667) S25A; S38A; S272A; S300A

Kd ([2]; no FSK/Cal, parent: est. 7.8): 9.2 ×10^3
Substance: Venus-tagged WT Rad (from UniProt O88667) S25D; S38D

Kd ([2]; no FSK/Cal, parent: est. 7.8): 18 ×10^3
Substance: Venus-tagged WT Rad (from UniProt O88667) S25D; S38D; S272D; S300D

Kd [2, 3]: 17 ×10^3
Kd [2, 4]: 6.3 ×10^3
Substance: Venus-tagged WT Rad (from UniProt O88667) S272A; S300A

Kd ([2]; no FSK/Cal, parent: est. 7.8): 57 ×10^3
Substance: Venus-tagged WT Rad (from UniProt O88667) S272D; S289D; S298D; S300D
